In US12065505B2, “Antibodies and antigen binding peptides for factor XIa inhibitors and uses thereof” (Bristol-Myers Squibb Company, priority 2021, dated 2024):
Where two headings read alike, the source gives them in different places.

How the values were obtained:
[1] = Competitive TR-FRET assay modified for mAbs and Fabs (T0, T24, T48); format: binding; details: 37° C.; for T24 hr IC50 shift: IC50 shift at 24 hr relative to T0; for T48 hr IC50 shift: IC50 shift at 48 hr relative to T0
Description: A competitive TR-FRET (time-resolved fluorescence resonance energy transfer) assay was developed to rank-order the dissociation of α-Compound A mAbs from Compound A as equilibrium is reached at 37° C. The assay buffer was HBS-N (10 mM HEPES, 150 mM NaCl, pH 7.4; GE Healthcare), 0.1% (w/v) BSA (bovine serum albumin; Sigma), 2% DMSO (dimethyl sulfoxide; Sigma). All reagents were prepared in assay buffer and dispensed in equal volumes into white 384 microplates with final volume of 20 μl per well at the following final concentrations: 4 nM COMPOUND 5, the biotinylated analog of COMPOUND 2, a 100 0.1 nM 7-pt titration of human α-Compound A antibodies, 0.1 nM europium-labeled α-mouse IgG (LANCE Eu-W1024; PerkinElmer), 5 nM streptavidin-D2 (Cisbio), and 4 nM mAb 26D5 VH_A10G_Y33A_S53P_M89V_G95A; VK_W32N_H38Q (P1-075621, the second-round optimization parent 26D5-295-B08 formatted with mouse IgG Fc). COMPOUND 5 and α-Compound A antibody titrations were added first to the microplate, and were subjected to an initial incubation at 37° C., 1000 rpm, for one hour to facilitate antibody binding to the compound. After the initial incubation period, the europium α-mouse IgG, streptavidin-D2, and 26D5-mouse IgG (P1-075621) were added sequentially, then the plate was returned to 37° C., 1000 rpm incubation. Microplates were read using a Perkin Elmer EnVision plate reader, and the measured FRET signal was defined as [665 nm]/[620 nm]*10,000. Microplates were read at 30 minutes (T0) and after 24 hour (T24) intervals. For each antibody titration, the FRET signal was converted to % Inhibition relative to wells without α-Compound A antibody: (100 ((FRET at [antibody concentration]/FRET at 0 nM)*100). The % inhibition antibody titrations were plotted using TIBCO Spotfire (v.7), and the IC50 was determined using a 4-parameter model curve fit. The IC50s at each timepoint were reported, as well as the IC50 curve shift relative to T0. An IC50 curve shift indicated α-Compound A antibody dissociation from the biotinylated compound as the assay reached equilibrium, which subsequently allowed 26D5-mouse IgG1 (P1-075621) competitor to bind and generate the FRET signal detected in the assay.
The competitive TR-FRET assay defined above was also modified to assess optimized 26D5 antibody progeny that were reformatted as Fabs. The α-Compound A antibody and Fab titration series were extended to 250 0.244 nM (11-pt titration), and replicates of each concentration were collected in quadruplicate. The assay incubation was extended to include an additional 48 hr timepoint to ensure equilibrium was reached, and T48 hr IC50 and IC50 shifts were reported. The % inhibition titrations were plotted in Graphpad Prism (v.8) and fit to a 4-parameter model. All other experimental setup conditions were otherwise identical to the antibody TF-FRET assay.
Competitive FRET data collected for affinity-optimized α-Compound A 26D5 progeny comparing human antibodies and Fabs are shown in FIG. 14 and Table 13. Each panel represents a single α-Compound A sequence, with antibody (mAb, solid lines, circles) and Fab (dotted lines, triangles) formats overlaid. […] The names of the mAbs/Fabs in Table 13 refer to the corresponding sequences in Tables 1-3. All mAbs listed in Table 13 were in a human IgG1f/LC kappa format.

[2] = SPR (Biacore) Protein A mAb capture, Compound A injected; details: 37° C., binding to Compound A, for rank ordering only
Description: The binding of hybridoma expressed 26D5 parent mAb (VH SEQ ID NO: 83 and VL SEQ ID NO: 98 in IgG1 f format)(P1-072224) and affinity matured mAbs to Compound A was examined by SPR (Biacore™) using a protein A capture method. The running buffer was 1×PBS (phosphate buffered saline, pH 7.4) with 0.05% Tween 20 and 2% DMSO. Binding experiments were carried out at 37° C. Protein A was coated on a CM5 S-series sensor chip (Cytiva, Cat. No. 29149603) at high density (2000+ RUs of protein A). The immobilization of protein A was carried out using the standard amine coupling immobilization procedure recommended by the manufacturer. The affinity matured antibody was then captured at a concentration of 2 ug/mL on the protein A surface at a flow rate of 3 uL/min for 2 minutes. Compound A was then injected over the captured antibody at concentrations spanning 100-3 nM (100, 50, 25, 12.5, 6.25, 3.125 nM) (FIG. 10) and for screening concentrations spanning 100-3 nM (100, 33, 11 nM) for 2 minutes at a flow rate of 100 uL/min and allowed to dissociate for at least 450 seconds. The chip surface was regenerated after each cycle with a 40 second pulse of 10 mM Glycine, pH 1.5. Background binding to the protein A surface alone was used to subtract non-specific binding. All experiments were run on a Biacore T200 surface plasmon resonance instrument using Biacore T200 Control software v. 2. Data analysis was performed using Biacore T200 evaluation software v 3.1. Apparent affinities were determined for rank ordering only since dissociation rates were too slow to be measured by Biacore. The names of the mAbs in Table 10 refer to mAbs having the H and L chain sequences of the corresponding Fabs in Table 3 in an IgG1f format.

[3] = read at 30 minutes (T0), competitor 26D5-mouse IgG (P1-075621), read-out: T0 IC50
[4] = apparent affinity, read-out: KD

Molecule | IC50 ([1]; 24 hr, read-out: T24 hr IC50) | IC50 ([1]; 48 hr, read-out: T48 hr IC50) | T24 hr IC50 shift [1] | T48 hr IC50 shift [1] | IC50 [1, 3] | Kd [2, 4] | Ka ([2]; apparent) | Kd ([2]; apparent)
26D5-75768-348-A10-mAb: human IgG1f/kappa mAb; VH SEQ ID NO: 56, VL SEQ ID NO: 89 (antibody, V domains shown) VH: EVQLVESGGGLIQPGGSLRLSCAASGFTVSSNAVSIVRQAPGKGLEWVAYIYPGGRTYYADSVKGRFTISRDNSKNTLYLQMNSLRAEDTAVYYCTIGGFGGGDYWGQGTLVTVSS VL: DIQMTQSPSSVSASVGDRVTITCRASQGISSNNQWYQQKPGKAPKLLIYYASSLQSGVPSRFSGSGSGTDFTLTISSLQPEDFATYYCQQGNEFPLTFGGGTKVEIK | 2.2 nM | 2.3 nM | 1.0 nM | 1.1 nM | 1.2 nM | < 0.1 nM | 3.8e+06 M⁻¹ s⁻¹ | <0.00041 s⁻¹
26D5-295-D07-mAb: human IgG1f/kappa mAb; VH SEQ ID NO: 75, VL SEQ ID NO: 88 (antibody, V domains shown) VH: EVQLVESGGGLIQPGGSLRLSCAASGFQVSENYMSWVRQAPGKGLEWVSFIYSGGRTYYADSVKGRFTISRDNSKNTLYLQMNSLRAEDTAVYYCARGGFGGGDYWGQGTLVTVSS VL: DIQMTQSPSSVSASVGDRVTITCRASQGISSNLAWYQQKPGKAPKLLIYAASSLQSGVPSRFSGSGSGTDFTLTISSLQPEDFATYYCQQANSFPLTFGGGTKVEIK | – | – | – | – | – | 1 nM | 800000 M⁻¹ s⁻¹ | 0.00081 s⁻¹
P1-074468-1: first round optimization progeny Fab; VH SEQ ID NO: 62, VL SEQ ID NO: 88 (antibody, V domains shown) VH: EVQLVESGGGLIQPGGSLRLSCAASGFQVSSNAMSWVRQAPGKGLEWVSFIYPGGRTYYADSVKGRFTISRDNSKNTLYLQMNSLRAEDTAVYYCARGGFGGGDYWGQGTLVTVSS VL: DIQMTQSPSSVSASVGDRVTITCRASQGISSNLAWYQQKPGKAPKLLIYAASSLQSGVPSRFSGSGSGTDFTLTISSLQPEDFATYYCQQANSFPLTFGGGTKVEIK | > 38.2 nM | > 43.1 nM | >36.0 nM | – | 2.2 nM | – | – | –
26D5-296-F08-mAb: human IgG1f/kappa mAb; VH SEQ ID NO: 73, VL SEQ ID NO: 95 (antibody, V domains shown) VH: EVQLVESGGGLIQPGGSLRLSCAASGFTVSSNYMSWVRQAPGKGLEWVSFIYPGGETYYADSVKGRFTISRDNSKNTLYLQMNSLRAEDTAVYYCARGGFGGGDYWGQGTLVTVSS VL: DIQMTQSPSSVSASVGDRVTITCRASQYIESNLAWYQQKPGKAPKLLIYAASSLQSGVPSRFSGSGSGTDFTLTISSLQPEDFATYYCQQANSFPLTFGGGTKVEIK | – | – | – | – | – | 0.68 nM | 870000 M⁻¹ s⁻¹ | 0.0006 s⁻¹
26D5-296-D03-mAb: human IgG1f/kappa mAb; VH SEQ ID NO: 76, VL SEQ ID NO: 88 (antibody, V domains shown) VH: EVQLVESGGGLIQPGGSLRLSCAASGFTVSSNYMSWVRQAPGKGLEWVSFIYSGGETFYADSVKGRFTISRDNSKNTLYLQMNSLRAEDTAVYYCARGGFGGGDYWGQGTLVTVSS VL: DIQMTQSPSSVSASVGDRVTITCRASQGISSNLAWYQQKPGKAPKLLIYAASSLQSGVPSRFSGSGSGTDFTLTISSLQPEDFATYYCQQANSFPLTFGGGTKVEIK | – | – | – | – | – | 0.71 nM | 1.7e+06 M⁻¹ s⁻¹ | 0.0012 s⁻¹
P1-073708-1: 26D5 parent Fab (Fab 26D5-GV-Q); VH SEQ ID NO: 82, VL SEQ ID NO: 99 (antibody, V domains shown) VH: EVQLVESGGGLIQPGGSLRLSCAASGFTVSSNYMSWVRQAPGKGLEWVSFIYSGGRTYYADSVKGRFTISRDNSKNTLYLQMNSLRAEDTAVYYCARGGFGGGDYWGQGTLVTVSS VL: DIQMTQSPSSVSASVGDRVTITCRASQGISSWLAWYQQKPGKAPKLLIYAASSLQSGVPSRFSGSGSGTDFTLTISSLQPEDFATYYCQQANSFPLTFGGGTKVEIK | > 28.2 nM | > 28.8 nM | >25.7 nM | >26.2 nM | 2.6 nM | – | – | –
26D5-295-A08-mAb: human IgG1f/kappa mAb; VH SEQ ID NO: 74, VL SEQ ID NO: 88 (antibody, V domains shown) VH: EVQLVESGGGLIQPGGSLRLSCAASGFTVSENYMSWVRQAPGKGLEWVSFIYPGGRTYYADSVKGRFTISRDNSKNTLYLQMNSLRAEDTAVYYCARAGFGGGDYWGQGTLVTVSS VL: DIQMTQSPSSVSASVGDRVTITCRASQGISSNLAWYQQKPGKAPKLLIYAASSLQSGVPSRFSGSGSGTDFTLTISSLQPEDFATYYCQQANSFPLTFGGGTKVEIK | – | – | – | – | – | 0.58 nM | 1e+06 M⁻¹ s⁻¹ | 0.00059 s⁻¹
26D5-296-C07-mAb: human IgG1f/kappa mAb; VH SEQ ID NO: 77, VL SEQ ID NO: 94 (antibody, V domains shown) VH: EVQLVESGGGLIQPGGSLRLSCAASGITVSSNYMSWVRQAPGKGLEWVSFIYSGGRTYYADSVKGRFTISRDNSKNTLYLQMNSLRAEDTAVYYCARGGFGGGDYWGQGTLVTVSS VL: DIQMTQSPSSVSASVGDRVTITCRASQYISSNLAWYQQKPGKAPKLLIYAASSLQSGVPSRFSGSGSGTDFTLTISSLQPEDFATYYCQQANSFPLTFGGGTKVEIK | – | – | – | – | – | 1.4 nM | 950000 M⁻¹ s⁻¹ | 0.0014 s⁻¹
